Source: the DeepSol protein solubility set

test: soluble on expression in E. coli; label from the status in PepcDB or PDB records

Sequence	soluble on expression in E. coli
KQWVWSAESPIETNILKLLPKNQQNPVAEQAFESVSASMSDKVIFVITAPDKNALFAAAAEFDKGLRQSNHFRDVVGKISPQEQQAWASYYFKHRFQLLTPEQRERLSQNPEQQVQHVIQSLYNPFSGVTGQELQSDPFLLFRDYLSQVTQQSSSFRLDNGYLSVEKDGAQYLLITAELKESPYSLTGQLAVPDIQALEQSVAQKYGAEVAHTGVLFYADFGTQSAKSE	soluble
MVNEYKKILLLKGFELMDDYHFTSIKSLLAYDLGLTTKMQEEYNRIKITDLMEKKFQGVACLDKLIELAKDMPSLKNLVNNLRKEKSKVAKKIKTQEKAPVKKINQEEVGLAAPAPTARNKLTSEARGRIPVAQKRKTPNKEKTEAKRNKVSQEQSKPPGPSGASTSAAVDHPPLPQTSSSTPSNTSFTPNQETQAQRQVDARRNVPQNDPVTVVVLKATAPFKYESPENGKSTMFHATVASKTQYFHVKVFDINLKEKFVRKKVITISDYSECKGVMEIKEASSVSDFNQNFEVPNRIIEIANKTPKISQLYKQASGTMVYGLFMLQKKSVHKKNTIYEIQDNTGSMDVVGSGKWHNIKCEKGDKLRLFCLQLRTVDRKLKLVCGSHSFIKVIKAKKNKEGPMNVN	soluble
MGSDKIHHHHHHMEKEMLTFDITNDFIVGDRITKETLNKYSKLPHKIKAGLFLLCVEGSVQASINLAKYTINKYDFVTLVPSNFIQFHEISDDARFYFAGFSSEFMTNINFIKSTMSFLPVITEHPIMPLEESVAQLYIDGYRLLIRAQSLSPSYSMVNKNLVIAYLTIFMQGTAELYKNHSHWTNGIRTRTNEIYRKFIQLVVEHYTTEHSVSFYAAQLNLSLPHFCTTIKKAIGLTPLEIISSIITMDAKAQLRSTDLTVKEIAFSLGFNNLSFFNKYFRQHTGMTPQEYRRMKIPSST	not soluble
MLKGIDLTYPQLTYLPETGILYDNTYNEKTVPIISGGGSGHEPAHVGYVGSGMLAAAVTGPLFIPPKSKNILKAIRQVNSGKGVFVIIKNFEADLKEFNEAIKEARTEGIDVRYIVSHDDISVNAYNFHKRHRGVAGTILLHKILGAFAKEGGSIDEIEQLALSLSPEIYTLGVALAPVHFPHQKTSFVLAEDEVSFGIGIHGEPGYRVEKFEGSERIAIELVNKLKAEINWQKKANKNYILLVNGLGSTTLMELYSFQYDVMRLLELEGLSVKFCKVGNLMTSCDMSGISLTLCSVKDPKWLDYLNVPTGAFAWLEHHHHHH	not soluble
MGSSHHHHHHGKTIFVIVPTNEEQVAFLEALAKQDELNFDWQNPPTEPGQPVVILIPSDMVEWFLEMLKAKGIPFTVYVEEGGSENLYFQGGGGGGVNPVVEFVDVGCAFGGMLFSLAAVFPATCMMGLEIRPKVVSFAQEKALALRQENAASLTQHYRNVWFEQMNVMKFGSNCFTKGQLSRLFFCYPDPHWKRKNIRRRIISPGLVQEYAYWLRHGGLVYTVSDVAELEEWMVQCLDDSPLFRRLAEAELCTPEHKQVLEIVTGASEDAQRTARKGLQKHFAVHMRI	not soluble
MRVGIKVLGCPKNEADCEVLAGVLREGGHEIVFDVKDADVVVLDTCAFIEDAKRESIDEIFSFVDAKDQYGYKLVVKGCLVQRYYEELKKEIPEVDQWIGVADPEEIANAIENGTDLVPDQPETVYRYRKRIDLEERPYAYVKISDGCDRGCTFCSIPSFKGSLRSRSIEDITREVEDLLKEGKKEIILVAQDTTSYGIDLYRKQALPDLLRRLNSLNGEFWIRVMYLHPDHLTEEIISAMLELDKVVKYFDVPVQHGSDKILKLMGRTKSSEELKKMLSSIRERFPDAVLRTSIIVGFPGETEEDFEELKQFVEEIQFDKLGAFVYSDEEGTVAFNLKEKVDPEMAKRRQEELLLLQAEISNSRLDRFVGKKLKFLVEGKEGKFLVGRTWTEAPEVDGVVFVRGKGKIGDFLEVVIKEHDEYDMWGSVILEHHHHHH	soluble
MKFDNKAPIYIQIMDKIKIDIINGTLKPGDKLPSVREMAVKFKVNPNTLQRVYQELERENITYTQRGTGSFVREDSDMIINLKKEMASEVIENFIENIKEFGFGNKDILKIVEDKLNEEEK	soluble
MSLQNGKIKGLIFDCYKTLIDIRTDEGSWETNEKVSKWLLYQGVRIEPDRLREEYKWKVIGRLGNSGQKYPDIRIEEIFAEICAENAFREINPFWLGIEAAKVFRTSSLKKLEAYPQSLRLLDKYRNVPKCIVSNAQRVFTEQELHFLGLYDRFNFIIMSSDHRIKKPDTRLFKMALDGLKLEPWEVLSIGDTPENDIYAPQSLGINAMHIRDAWRCVEGHHHHHH	soluble
MSLKGGEYLETAAKVDVVVVDKTGTLTTGRPELTDVEVIEPAYSQGEVLELAARAETASEHPLADAIIRGAQDRGLSTTLVEAAENITGRGIIANVDGQAVAVGSAELLDHEPDSTRILELNAEGKTAMFVGVNGHAIGIVAVADAVRSDSASAIESLHKAGIQVVMATGDAHRVAQNVASKLGVDEVYSELLPEQKLELVRDLQAAGKTVAMVGDGVNDTPALAAADIGVAMGVAGSPAAIETADIALMADRLPRLAHAVTLAKRTVRTMREGHHHHHH	soluble
MTKPLNTTQAVIEWVNNTRRYATRLDDEADALLAQLTLAAADESALNAACASHGCVGLYGYAQSAKAHLLTTLCGNENGKLEIITPDRDYDYFSHINPGHAPANMAIRFTRDIFSNESGWPLRLRLISEAELVQIFIAWTSSSPVCRQVEKSIITSRLEKWQSLRQPQPVPGVTAEEVATIASFWRSCLPSARQHIDDATWQHFASLLPALDLTTRAHAWALLWGEQPEITQQWLALAHMLQQTGHAGELAAPLSLLVDHFGLPAENFLTQMALTANDTQSDVVVHPVKEGRLLNAVSLSLDSLALLTRELVLSVENNVLDNVDLLDIPVAPDSHPHPLWRAKLGWMLAHYRQQVQPDVLVICNALASRSQTSTAAHHLLEWVNATQPQHESALPGVVWAITPQDARFATQQNLDEAVQQLMGKPGVHWGTLQALDKHSMQRLVEWLSQATSAPQRQARLQALREQLRGRVRDLLPMFDDARLPVETVIRRLQAQAARHGDLLAGLLPPVQNFEALLSTRQSREEQVCGLFNDAIDLFADEPTRASASEGHETGYQAHKMWINHLRQWAHCRDNAQRLGLEPQMLNAVAEILITASYRLGLPQQLQKTMQREEVSGAQLHAIIGNFIAWLGYANIEEAQRPASRVQKGAAIFAATPRSTMLRLTKLDEQPVHAASRYVYDWLVALYTLANENAGYRHPQDVTDVDRAQLIALIA	soluble
MNRGSLYITATPIGNREDITLRAIDTLRSVDLIAAEDTRHSKKLLEHYGIKTPLLSLHEHNEAARATLLCEKLKQGLNVALISDAGTPLISDPGYRLVNAVREAGIEVVPIPGACAAIAALVASGLPTDRFIFEGFIPSKGEVRRKKLEDLKNQRRTIIFYESVHRIVNLIDLLNEIFGTERRATIARELTKKFETIHTATLAELKNWINENPVQEKGEFVVIVAGQTEKLTEINEEHQQLLTLLLSELSLKQAVSLATKISGLPRKKLYALALTIQQHLPHHRY	soluble
MIDISHGHTSCSSHRSSSLPSVFWKIHLSPPLPSFKFKKSTESTQRQTIPKFSSPASSLAPSTPLWSLSSCLLVSEVSFWPGAGFLYNDLVCLDREDHCLSNSASHSCG	soluble
MAKKLSSPKEYKEFIDKFDVFLFDCDGVLWSGSKPIPGVTDTMKLLRSLGKQIIFVSNNSTKSRETYMNKINEHGIAAKLEEIYPSAYSSATYVKKVLKLPADKKVFVLGEAGIEDELDRVGVAHIGGTDPSLRRALASEDVEKIGPDPSVGAVLCGMDMHVTYLKYCMAFQYLQDPNCAFLLTNQDSTFPTNGKFLPGSGAISYPLIFSTGRQPKILGKPYDEMMEAIIANVNFDRKKACFVGDRLNTDIQFAKNSNLGGSLLVLTGVSKEEEILEKDAPVVPDYYVESLAKLAETA	soluble
PLGSDHWGKGDMSDEDDENEFFDAPEIITMPENLGHKRTGSHHHHHH	soluble
MGSDKIHHHHHHMTDAPGPLEPLGSTGGPILDRPAFERLTTTHRRALKLHCYRMMGSLHEADDLVQETFLKAWRGRAQFDGRGSPRGWLYTIATNACLNAIKARSSAHRILEEPARPPSEGRAAAGLAAELSWLEPYPDAELPDLIDGEPGPDARYETSEAVRLAFVAAIQLLPPRQRASLLLCDVLGWSALETAQLLGGSTASVNSALQRARATLGERYPQGRPQQRSQPNPEEGVLLERYISAWQAANLDGFIALLREDATYHMPPWRDWYRGRPAIHGFFKTVWGNFAGYRAVATRANGQPAVAIYARRHQEPEWRAQSLHVIEPAYGAIASLTVYVAPLGPGLFAAFGLPPVWSGPQA	not soluble
MADYTTIAAQPRNEFGKGFARRLRVAGQVPGVIYGVDVEAPIHFSINRLELHAVLRAHGVNAIIELDIEGEKHLTMIKHVDQNVLTLNADHVDLLAIKRGEKVEVEVPVVLTGETAPGTTLVQDADVVLVEADVLSIPEEITFSVEGLDVDSKVLAGDLAMPANTSLVADAETVIASVNHEEVAEEAEETEGEDAEEAPAAEGEE	soluble
MNALPPAIFLMGPTAAGKTDLAIELSKVLPCELISVDSALVYRGMDIGTAKPSKAQLAEFPHRLIDILDPAQSYSAADFRSDALAAMAQITARGNIPLLVGGTMLYFKALLDGLADMPAANAAVRAQLEADAQAFGWQSLHDQLAVVDPVSAARIHPNDPQRLIRALEVYRVSGMSMTAHREQQTAQSTEAAASGCQQLPYTVANLAIAPADRKVLHQRIALRFEQMLDQGFLDEVLALRSRGDLHAGLPSIRAVGYRQVWDHLDGKLTREEMQERGIIATRQLAKRQFTWLRSWDDLHWLDSLASDNLSRALKYLGSVSILSLEHHHHHH	not soluble
GMSIYNSIGKQYSQTRVPDIRIVNAIINLLNLPKGSVIADIGAGTGGYSVALANQGLFVYAVEPSIVMRQQAVVHPQVEWFTGYAENLALPDKSVDGVISILAIHHFSHLEKSFQEMQRIIRDGTIVLLTFDIRLAQRIWLYDYFPFLWEDALRFLPLDEQINLLQENTKRRVEAIPFLLPHDLSDLFAAAAWRRPELYLKAEVRAGISSFALANQDLVEKGLELLTADLNNGEWIRKYGEIHHLQEIDIGYRFIYTTLDK	soluble
MGSDKIHHHHHHMMAMITDPDDFFTKGCGRCARFDTPDCSTRPWIDGLNALRRICFSMGLEETAKWAHPCYMHAGRNIALLGAFRSDFLISFLNAGLLVDKAGVLKTPGPNSQTPSVIRFTTVAEVEALEPTIRAYLRQLMDHAVAGTQPPKMAREIDLPDELVDALDADPVLAEAYHALTPGRQRSYLFALSQAKQSATRVARIEKFRDKIIAGKGALER	not soluble
MRHPDFPVPPRIDAFASWEASLRLAFARRGGRTVLASCRHRGPLRVQKALYPEGEGVCHVVLLHPPAGIAGGDVLDIGIELGAEAHAVLTTPGATKWYKSPGRTAMQQVAIRLDAGARLDWLPQENIVFNQARPVIDLTLDLAPGAAAIGWDITMLGRHAAGESWQEGRIAMHTRLRCEGQPLWIESTAFDAQSPVLGATTGMAGFHVVGTLWAVGAGATEALAETLAEQLPYRDDLRAGVTCLTQDAPGRPSVLLLRVLARRPEDARALLSQTWLALREPIHGVAGRPLRLWATLEHHHHHH	not soluble
MIINIRKFREHDLKRVMEIEKESFDKNYPEFLMMHIYTSFPDGFLVAETEDGKIVGYIIALMEWGNGHVVSIAVDSAYQNYGIGNALLSATENFLFNECHAKHCVLEVRFDNKKAREFYYKRNYVDRKVLYNYYDDGADAILMIKRRFDLSGNYPIFVNMW	not soluble
MHRTTRIKITELNPHLMCVLCGGYFIDATTIIECLHSFCKTCIVRYLETSKYCPICDVQVHKTRPLLNIRSDKTLQDIVYKLVPGLFKNEMKRRRDFYAAHPSADAAN	soluble
